Assay results reported in the nanobody polyreactivity screen of Harvey et al. (2022).

Assay: yeast display, Sf9 membrane polyspecificity reagent, FACS + sequencing; frameworks hold sequencing errors
Summary of the method: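 Nanobodies came from a synthetic yeast display library in Saccharomyces cerevisiae BJ5465, induced with galactose for 36–48 hours and stained for 1 hour at 4 °C with 10% biotinylated, detergent-solubilized Sf9 membrane reagent. Cells were enriched on streptavidin microbeads and then FACS-sorted, with low and high (top ~1%) gates set on anti-HA fluorescence for expression and streptavidin fluorescence for reagent binding. Each polyreactivity label reflects the gate a clone came from. Genes were amplified by colony PCR, sequenced by MiSeq 2 × 250 and filtered by CDR length.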

Row | Sequence | polyreactivity (PSR sort gate)
1 | QVQLGDSGGGLVQAGGSLRISCAASGNTFLYYGMGWYRQAPGKDRDLVAAITQSGGTTYYADSVHGRFTISRDNAKYTVYLQMNSQKPEDTAVYYCGATRYYYYTYVYDDRGDYWGQGTQVTVSS | low polyreactivity
2 | QVQLGESGGALVQAGGSLRLSCAASGSTIYAYDMGWYRPAPGKERELVAAISSGGSTYYADSVKGRFTFSRDNAKNTVYLQMNCLKPEDTAVYYCATEYTYELEASEPSDYDYWGQGTQVTVSS | low polyreactivity
3 | QVQLGESGGGLVHEGGSLRLSCAASGFINFANTMGLYRQAPGKERELVAAITSDGSTYYADSVKGRFTISRDNAKNTVYLQMNSLKPEDTAVYYCNAQSNYADLAYWNDYWGQGTQVTVSS | low polyreactivity
4 | QVQLGESGGGLVQAGGSLRFSCAASGRPFFVYGMGWSRQAPGKERELVAAISWNGGRTYYADSVKGRFTISRDKAKNTVYLQMKSLKPEDTAVYYCNARARDYTGPSSPIFYYWGQGTQVTVSS | low polyreactivity
5 | QVQLGESGGGLVQAGGSLRLSCAASAYIFGSYAMGRSRQAAGKERELVATISYRAGRTYYADSVKGRFTISRDNAKNTVYLQMNSLKPEYTAVYFSDADFVIDLEYDYWGQGTQVTVSS | low polyreactivity
6 | QVQLGESGGGLVQAGGSLRLSCAASGFIFPGYAMGLYRQAPGKERELVAAITGSGGSTYYADSVKGRFTISRDNAKYTVYVQMNSVKTEDTAVDYCGAYVSGYLWGYDYWGHGTQVTVSS | high polyreactivity
7 | QVQLGESGGGLVQAGGSLRLSCAASGFIFRNYAIGWYRPPPGKERELVAAISRSGGSKYYADCVKGRFTISRDKAKNSVYLQMNSLKPVDTAVYYCNKDPRGRIPVPGTWIMDYWGQGTQVTVSS | high polyreactivity
8 | QVQLGESGGGLVQAGGSLRLSCAASGFTFDFYAMGWYRPAPGKEWELVAAINWSGSSTYYADSVKGRFTISRDNAKNTDYLQMNSLKPEDTAVYYCAAQVYYTLFPDVYTMYYWGQGTQETVSS | high polyreactivity
9 | QVQLGESGGGLVQAGGSLRLSCAASGFTFGRYTMGWYRPAPGKERELVASITSSGARTYYADSVKGRFTISRDNAKNTVYLQMNSLKPEDTAVYYCNAGKRGSTYYYWGQGTQVTVSS | high polyreactivity
10 | QVQLGESGGGLVQAGGSLRLSCAASGGTFARNTMGWYRQAPGKERELVAAITRGGSSTYYADSVKGRFTISRDYAKNTVYLQMNSLKPEDTAVYYCNKSLRWLYPYYGTTGRYDYWGQGTQVTVSS | high polyreactivity
11 | QVQLGESGGGLVQAGGSLRLSCAASGIIFRYYAMAWYRQAPGKERELVAAISSSTGNTYYADSVKGRFTISRDNAKNTVYLQMNSLIPEDTAVYYCAARTRQISIVGYNYWGQGTQVTVSS | high polyreactivity
12 | QVQLGESGGGLVQAGGSLRLSCAASGNIFRYYAMGWYRQAPGKERELVAAITWSGGSTYYADSVKGRFTISRDNAKNTVYLQMNSLKQEDTAVYYCNTYRVPYRTVQDDYWGQGTQVTLSS | high polyreactivity
13 | QVQLGESGGGLVQAGGSLRLSCAASGNTFVSNAMGWYRQAPGKERELVAAINSGGSTNYADSVKGRFTISRDNAKNTVYLQMNSLKPEDTAVYYCNKDYDYPQRYWMDYWGQGTQVTVSS | low polyreactivity
14 | QVQLGESGGGLVQAGGSLRLSCAASGRIFPVNAMGWYRQAPGKERELVATITSYSSTYADSVKGRFTISRDNAMNTVVLQMNCLKPEDTAVYYCNADQGYFGYDYWGQGTQVTVSS | low polyreactivity
15 | QVQLGESGGGLVQAGGSLRLSCAASGRIFRNNAMGWYRQAPGKERELVAAITWSGGSTYYADSVKGRFTISRDNAKNTVYLQMNSLKPEDTAVYYCNAGRGYKYSYTYDYWGQGTQVTLSS | low polyreactivity
16 | QVQLGESGGGLVQAGGSLRLSCAASGRIFRWYAMGWYRQAPGKVRELVAAISRSGTSTYYADSVKGRFTISRDNAKNTVYLQMNSLKPEDTAVYYCAADAVIFGMDYWGQGTQVTVSS | low polyreactivity
17 | QVQLGESGGGLVQAGGSLRLSCAASGRIFWGYAMGWYRQAPGKERELVAAITRGTRTNYADSVKGRFTISRDNAKNTVYLQMNSLKPEDTAVYYCAADYRDSYLFYYWGQGTQVTVSS | high polyreactivity
18 | QVQLGESGGGLVQAGGSLRLSCAASGRIFWYNAMGWYRQAPGKERELVAGIRSGGSTNYADSVKGRFTISRDNAKNTVYLQMNSLKPDDTAVYYCNVDHEARKLHVSIKQLSDHWGQGTQVTVSS | low polyreactivity
19 | QVQLGESGGGLVQAGGSLRLSCAASGRTSTGYAMGWYRQAPGKERELVAGIDKIGGRTYYADSVKGRFTISRDNAKNTVYLQMNSLKPEDTAVYYCAKTRYFSVGTHWDYYYWGQGTQVTVSS | high polyreactivity
20 | QVQLGESGGGLVQAGGSLRLSCAASGSIFGLYAMGWYRQAPGKERELVATITSGSSTTYADSVKGRFTISRDNAKNTVYLQMNSLKPEVTAVYYCGVDDLYGFDYWGQGTQVTVSS | low polyreactivity
21 | QVQLGESGGGLVQAGGSLRLSCAASGSIFQPYAMGWYRQAPGKEREFVAAISRSGGMTYYADSVKGRFTISRDNEKNTVYLQMNSLKPEDTAVYYCATGRQVVRSYSEGDYSGQGTQVTVSS | low polyreactivity
22 | QVQLGESGGGLVQAGGSLRLSCAASGSIFSKYAKGSYRQAPGKERELVAAITMNGGSTYYADSVKGRFTISRDNAKNTVYFQMNSLKPEDTAVYYCSKSERPWWGYYYQFDYWGQGTQVTVSS | low polyreactivity

Row | Sequence | polyreactivity (PSR sort gate)
23 | QVQLGESGGGLVQAGGSLRLSCAASGSTFAPYAMGWYRQAPGKERELVAAISTGGSTNYADSVKGRFTISRDNAMNTVYFQMNSLKPEDTAVYYCNTGYFVWGFDYWGQGTQVTVSS | low polyreactivity
24 | QVQLGESGGGLVQAGGSLRLSCAASGSTFAYNDMGWYRQAPGKEMELVADIRSGGNTKYADSVKGRFTISRDNAKNTVYFQMNSLKPEDTAVYYCATDGYRIDVYHPDYRYDYWGQGTQVTVSS | low polyreactivity
25 | QVQLGESGGGLVQAGGSLRLSCAASGSTFGFYAMGWYRQAPGKERELVAAISGRGGSTYYADSVKGRFTISRDNAKNTVYLQMNSLKPEDTAVYYCAKEFKYWGYPYDYWGQGTQVTVSS | low polyreactivity
26 | QVQLGESGGGLVQAGGSLRLSCAASGSTFNLYAMGWYRQAPGKERELVAAISFSGGSTYYADSVKGRFTISRDNAKNTVYLQMNSLKPEDTAVYYCAAVESSYEAWDTYYYWGQGTQVTVSS | low polyreactivity
27 | QVQLGESGGGLVQAGGSLRLSCAPSGSTFNRFARGWYILAPGNVRELVAAISRSGGSTYYADSVKGRFTISRDNPKTTLYLQMNSLKPEDTAVYYCAADRTGHGFGYWGQGTQVTVSS | high polyreactivity
28 | QVQLGESGGGLVQAGGSVRLICAASGGIFEWNAMGWYRQAPGKERELDAAISNTGGSTSYADSVKGRFTISRDNAMNSVYLQMNCLKPEDTAVYYCNRFPPRRYYARYYSWGQGTQVTVSS | high polyreactivity
29 | QVQLGESGGGLVQAGGTLRLTCAASGSIFNGNAMGGSRQAPGKERELVAAISRNGGSTYYAVSVKGRFTISRDNAKNTVYLQMNSQKPEDTAVYYCDTDLTVYYSYYWMYWGQGTQVTVSS | low polyreactivity
30 | QVQLGESGGGLVQAVGSLRLSCAASGSTFRGNAMGWYRQAPAKARELVAANTSDGSTSYADSVKGRFTISRDNAKNTVYLQMNSLKPEDTAVYYSNADYHQSIWEAVDFEYDYWGQGTQVTVSS | low polyreactivity
31 | QVQLGESGVGLVQAGGSLRLSCASSGRTLPVNAMGWYRQAPGKERELVAGISWGGDSTYYADSVKGRFTISRDNAKNSVYLQMNSLKPEDTAVYYCAASSSTWPGDFWGQGTQVTVSS | low polyreactivity
32 | QVQLGESRGGLVQAGGSLRLSCAASGIIFTFNAMVWYSQAPGKERELVAGISQGGSSTNYADSVKGRFTISRDNAKNTVDLQRNSLKREVTAVYYCAAYVDIVGDYWVVGYYYWGQGTQVTVSS | low polyreactivity
33 | QVQLHESGGGLLQAGGGLRLSCAASGSISSTGFMGWYRQAPGKEREPVAAIAPGTTTYYADSVKGRFTISRDNAKNTVYLQMNSLRPEDTAVYYCAVFTDNRVAFLYWGQGTQVTVSS | low polyreactivity
34 | QVQLHESGGGLVHACGSLRPSCAASGSISDSWTMSWYRQAPGKEREFVAGITWGGTTNYADSVKRRFTISRDNAKNNVFLQMNSLKPEDTAVYYCAAVSYYGVDQYRITVYTYEYWGQGTQVTVSS | low polyreactivity
35 | QVQLHESGGGLVQAGGGLRLSCAASGSISSTGFMGWYRQAPGKEREPVAAIAQGTTTYYAESVKGRFTISRDNAINTVYLQMNSLRPEDTAVYYCAVFTDNRVAFLYWGQGTQVTVRS | low polyreactivity
36 | QVQLHESGGGLVQAGGGLRLSCASSGSISSTGFMGWYRQAPGKEREPVAAIAPGTTTYYADSVKGRFTIRRDNAKNTVYLQMNSLRPEDTAVYYCAVFTDNRVAFLYWGQGTQVTVSS | low polyreactivity
37 | QVQLHESGGGLVQAGGSLRLSCAAIGTISYSGPMGWYRQAPGKEREFVAGIGVGSNTNYADSVKGRYTIIRDNAKNTVYLQMNSLKPEDSAVYYCAVGGYAPLGRPYWGQGTQVTVSS | low polyreactivity
38 | QVQLHESGGGLVQAGGSLRLSCAASGTISYAGPMGWSRQAPGKEREFVAGIGVGSNTNYADSVKGRYTIIRANAKNTVALQMTCLKPEDTAVYYCAVGGYAPLGRPYWGQGTHVTVSS | low polyreactivity
39 | QVQLHESGGGLVQAGGSLRLSCAASGTISYAGPMGWYRQAPGKEREFVAGIGVGSNTNYADRVKGRYTIIRDNAKNTEYLQRNSLKPEDTALYYCAVGGYAPLGRPYWGQGTQVTVSS | low polyreactivity
40 | QVQLHESGGGLVQAGGSLRLSCAASGTISYAGPMGWYRQAPGKEREVVAGIGVGSNTIYADSVKGRYTIIRDNAKKTVYLQMKSLKPEDTEVYYCAVGGYAPLGRPYWGQGTQVTVSS | low polyreactivity
41 | QVQLHESGGGLVQAGGSLRLSCAASGTISYAGPMGWYRQAPGTEREFVAGIGVGSNTNYADSVKGRYTIIRDNAKNTVYLQMNSLKPEDTAVYYCAVGGYAPLGRPYWGQGTQVTVSS | low polyreactivity
42 | QVQLHESGGGLVQAGGSLRRSCAPSGTISYAGPMGWYRQAPGKEREFVAGIGVGSNTNYADSVKGRYTIIRDNAKNTVYLQMNSLKPEDTAVYYCAVGGYAPLGRPYWGQGTQVTVSS | low polyreactivity
43 | QVQLIESGGGIVQAGGSLRLSSAASGIIFDWYTMGWYRQATGKERELVAAISWRGGRTYYADSVKGRFTISRDNAKNTVYLQMNSLKAVDTGVYYCAAEAPVQPFYVFNSGIYDLDYWGQGTHVTVSS | low polyreactivity
